For experiment [1], the target named is Sos1-X′ peptide (Homo sapiens). The experiment is described as follows: NMR.
The target of experiment [2] is Sos1-X′ peptide (Homo sapiens). The experiment is described as follows: NMR. The source holds these as a separate data set.

Like-named read-outs stand apart in the source and are kept apart here.

Among the data in PMC6934455, “Molecular Dynamics model of peptide-protein conjugation: case study of covalent complex between Sos1 peptide and N-terminal SH3 domain from Grb2” (Scientific Reports, 2019) are Kd values, retold here.

B1: Grb2 N-SH3 2-59, P62993 (protein)
chain: EAIAKYDFKATADDELSFKRGDILKVLNEESDQNWYKAELNGKDGFIPKNYIEMKPHP
For B1, the values for the Kd in experiment [1] and in experiment [2] were 4.9 µM and 4.6 µM, respectively.
